Data published in the supplement of paper PMC10567573.
± gives the standard deviation.

Assay: protein stability index of a GFP-peptide fusion (GPS, HEK-293T) (PSI 1-6); higher = more stable
Conditions: c terminus: a fixed tail appended
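Further: 24-mer peptide tiles fused after GFP, lentivirally expressed, FACS-sorted into six equal bins by GFP/DsRed ratio, decoded by Illumina sequencing, PSI is the read-weighted mean bin number.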

In the case of QWIEVDARRLTRFTGVITQGRNSL [CPXM2], the protein stability index (treatment: DMSO) is reported as 2.91 ± 0.6 and the protein stability index (treatment: MLN4924 1 uM, 8 h) is reported as 2.52 ± 0.17.

Sequence EPLYNWQATKASLKERFAFLFNSE [BTBD1] has a protein stability index (treatment: DMSO) of 2.97 ± 0.22 and a protein stability index (treatment: MLN4924 1 uM, 8 h) of 2.78 ± 0.37.

For LLKALVSELSEHLRDPLTSLSHTE [FCHSD1], the protein stability index (treatment: DMSO) was 2.44 ± 0.42 and the protein stability index (treatment: MLN4924 1 uM, 8 h) was 2.2 ± 0.17.

EALAATWEQPWASEVFGPERMPPS [PXN] gave a protein stability index (treatment: DMSO) of 3.33 ± 0.27 and a protein stability index (treatment: MLN4924 1 uM, 8 h) of 3.5 ± 0.47.

VFNLFRTMGLRHLPVVNAVGEIVG [CLCN6] showed a protein stability index (treatment: DMSO) of 2.45 ± 0.21 and a protein stability index (treatment: MLN4924 1 uM, 8 h) of 2.29 ± 0.18.

With AGLSLLSPSVMRLVHTQEPGEWLE [ALKBH7] the protein stability index (treatment: DMSO) was 2.71 ± 0.38 and the protein stability index (treatment: MLN4924 1 uM, 8 h) was 2.79 ± 0.24.

With VIDRKVYNISEFTRRHPGGSRVIS [FADS1] the protein stability index (treatment: DMSO) was 2.66 ± 0.26 and the protein stability index (treatment: MLN4924 1 uM, 8 h) was 3.07 ± 0.062.

Work on CHLAHELRLSCMERKKVQIRSMDP [DCAF4] yielded a protein stability index (treatment: DMSO) of 2.39 ± 0.25 and a protein stability index (treatment: MLN4924 1 uM, 8 h) of 2.42 ± 0.2.

MAMQMQLEANADTSVEEESFGPQP [RAD51] showed a protein stability index (treatment: DMSO) of 5.15 ± 0.25 and a protein stability index (treatment: MLN4924 1 uM, 8 h) of 5.26 ± 0.13.

With SCQSFISWTGDGWEFKLSDPDEVA [ETS1] the protein stability index (treatment: DMSO) was 3.12 ± 0.13 and the protein stability index (treatment: MLN4924 1 uM, 8 h) was 3.06 ± 0.31.

Work on PMPWLVLSEIFPGGIRGRAMALTS [SLC2A12] yielded a protein stability index (treatment: DMSO) of 2.5 ± 0.16 and a protein stability index (treatment: MLN4924 1 uM, 8 h) of 2.33 ± 0.38.

Sequence QRRTEASRNAADKERAAGGGAGSS [GOLPH3] has a protein stability index (treatment: DMSO) of 5.54 ± 0.23 and a protein stability index (treatment: MLN4924 1 uM, 8 h) of 5.36 ± 0.15.

EIIRKQVSATKAEAEKDGVKVPTT [UBE2R2] showed a protein stability index (treatment: DMSO) of 4.84 ± 0.37 and a protein stability index (treatment: MLN4924 1 uM, 8 h) of 4.7 ± 0.25.

Work on MASPDDPLRADHMVKEPVEDTDPS [EDARADD] yielded a protein stability index (treatment: DMSO) of 5.52 ± 0.17 and a protein stability index (treatment: MLN4924 1 uM, 8 h) of 5.63 ± 0.2.

VRAWDLETGKLLWKVRYDTFIVSC [WDR88] gave a protein stability index (treatment: DMSO) of 2.67 ± 0.069 and a protein stability index (treatment: MLN4924 1 uM, 8 h) of 2.11 ± 0.48.

Work on MPYISDKHPRQTLEVINLLRKHRE [KLHL20] yielded a protein stability index (treatment: DMSO) of 2.86 ± 0.51 and a protein stability index (treatment: MLN4924 1 uM, 8 h) of 2.98 ± 0.26.

In the case of DLLNNKLVTLPVSFAQLKNLKWLD [LRRC59], the protein stability index (treatment: DMSO) is reported as 2.24 ± 0.23 and the protein stability index (treatment: MLN4924 1 uM, 8 h) is reported as 2.17 ± 0.31.

AIPEAIGFVMVPFEYRGEQHKTCM [EDNRA] showed a protein stability index (treatment: DMSO) of 2.36 ± 0.32 and a protein stability index (treatment: MLN4924 1 uM, 8 h) of 2.31 ± 0.27.

For TAERKQEQKTGTEAEAADSGAVGA [MFSD9], the protein stability index (treatment: DMSO) was 5.56 ± 0.28 and the protein stability index (treatment: MLN4924 1 uM, 8 h) was 5.65 ± 0.23.

Sequence PPTSPEPPRSSPRQTPAPGPAREK [CEBPD] has a protein stability index (treatment: MLN4924 1 uM, 8 h) of 5.62 ± 0.089.

For TDNGTFNLSRGQTPLTEGSEDLDG [RETREG3], the protein stability index (treatment: DMSO) was 5.25 ± 0.26 and the protein stability index (treatment: MLN4924 1 uM, 8 h) was 5.45 ± 0.25.

For LIKALKIFQEKHVNLLHIESRKSK [TPH1], the protein stability index (treatment: DMSO) was 2.28 ± 0.12 and the protein stability index (treatment: MLN4924 1 uM, 8 h) was 2.22 ± 0.23.

With TNTHPPASLPSQKYPGPQAEGDSE [CHGA] the protein stability index (treatment: DMSO) was 5.43 ± 0.2 and the protein stability index (treatment: MLN4924 1 uM, 8 h) was 5.57 ± 0.13.

EALKHPWICQRSTVASMMHRQETV [CAMK2D] gave a protein stability index (treatment: DMSO) of 2.81 ± 0.28 and a protein stability index (treatment: MLN4924 1 uM, 8 h) of 2.73 ± 0.25.

In the case of NIVNLLTTCSTPLLNSPPSFVCWS [AUP1], the protein stability index (treatment: DMSO) is reported as 3.2 ± 0.56 and the protein stability index (treatment: MLN4924 1 uM, 8 h) is reported as 2.78 ± 0.47.

In the case of YLLALTIIVSIVHSVFEFLAFKND [CLPTM1], the protein stability index (treatment: DMSO) is reported as 2.985 ± 0.024 and the protein stability index (treatment: MLN4924 1 uM, 8 h) is reported as 2.85 ± 0.5.

EVRDRMLLKITIPNAFIGSDVVDW [DVL3] showed a protein stability index (treatment: DMSO) of 2.17 ± 0.43 and a protein stability index (treatment: MLN4924 1 uM, 8 h) of 2.46 ± 0.15.

In the case of RLAELEAQVRKLELERAQHELLLG [FBF1], the protein stability index (treatment: DMSO) is reported as 2.97 ± 0.22 and the protein stability index (treatment: MLN4924 1 uM, 8 h) is reported as 2.87 ± 0.14.

DLFEKKGYTFDYAYDWVGRPIPTP [CSNK1G1] gave a protein stability index (treatment: DMSO) of 2.26 ± 0.58 and a protein stability index (treatment: MLN4924 1 uM, 8 h) of 2.37 ± 0.29.

Work on AECALVSLKEAEFYDKQLKVLLSG [ZFYVE21] yielded a protein stability index (treatment: DMSO) of 2.86 ± 0.24 and a protein stability index (treatment: MLN4924 1 uM, 8 h) of 3.05 ± 0.48.

Sequence DRSTEPDRLQVFHKRAIMPYGVYK [ATE1] has a protein stability index (treatment: DMSO) of 3.44 ± 0.24 and a protein stability index (treatment: MLN4924 1 uM, 8 h) of 3.47 ± 0.26.

With KVRSLETENSALQLQVTEREEVRG [LMNB1] the protein stability index (treatment: DMSO) was 5.22 ± 0.35 and the protein stability index (treatment: MLN4924 1 uM, 8 h) was 5.53 ± 0.15.

With KEETNHSEMAEDLCKIGSERSLVL [IKZF1] the protein stability index (treatment: DMSO) was 4.69 ± 0.31 and the protein stability index (treatment: MLN4924 1 uM, 8 h) was 4.86 ± 0.28.

Work on PPNQQMSPSPMSHGHYSMHCLHSA [DLX1] yielded a protein stability index (treatment: DMSO) of 3.1 ± 0.31 and a protein stability index (treatment: MLN4924 1 uM, 8 h) of 3.13 ± 0.15.

APSCAIMISTYEFGKSFFQRLNQD [SLC25A39] gave a protein stability index (treatment: DMSO) of 2.47 ± 0.86 and a protein stability index (treatment: MLN4924 1 uM, 8 h) of 2.06 ± 0.33.

For VLTAVDGGTPARSGTTLISVIVLD [PCDHGC5], the protein stability index (treatment: DMSO) was 2.34 ± 0.47 and the protein stability index (treatment: MLN4924 1 uM, 8 h) was 2.26 ± 0.22.

Sequence TFTASFSGKVFPFFAVWKKGSCLT [TRIM15] has a protein stability index (treatment: DMSO) of 2.46 ± 0.47 and a protein stability index (treatment: MLN4924 1 uM, 8 h) of 2.34 ± 0.42.

In the case of DNPSVLSGPMQAALQAAAHASVDI [SMG5], the protein stability index (treatment: DMSO) is reported as 4.05 ± 0.14 and the protein stability index (treatment: MLN4924 1 uM, 8 h) is reported as 4.29 ± 0.26.

In the case of VCTISSTGPLQPQPKKPEDEPQET [PKD2L1], the protein stability index (treatment: DMSO) is reported as 5.39 ± 0.21 and the protein stability index (treatment: MLN4924 1 uM, 8 h) is reported as 5.48 ± 0.16.

TPHTPKSLLSKARGIDSSSVKLRG [WEE1] showed a protein stability index (treatment: DMSO) of 4.26 ± 0.54 and a protein stability index (treatment: MLN4924 1 uM, 8 h) of 4.08 ± 0.28.

With GGGGTQRLPRAIGMSLAKELIFSA [AUH] the protein stability index (treatment: DMSO) was 2.54 ± 0.21 and the protein stability index (treatment: MLN4924 1 uM, 8 h) was 2.69 ± 0.58.

For SGHGDAHLQEYAGNFQGIRFHYDR [FATE1], the protein stability index (treatment: DMSO) was 3.32 ± 0.17 and the protein stability index (treatment: MLN4924 1 uM, 8 h) was 3.33 ± 0.1.

With AMEPEPAPAPAPEEWLDILGNGLL [FKBP8] the protein stability index (treatment: DMSO) was 4.47 ± 0.1 and the protein stability index (treatment: MLN4924 1 uM, 8 h) was 4.59 ± 0.41.

DSCVLTGPDDSLWDKHACPAYVGP [TRIB3] gave a protein stability index (treatment: DMSO) of 3.65 ± 0.33 and a protein stability index (treatment: MLN4924 1 uM, 8 h) of 3.62 ± 0.19.

Sequence EGAQRDRFPGRKQPGVHEEPVLKK [C22orf31] has a protein stability index (treatment: DMSO) of 5.15 ± 0.3 and a protein stability index (treatment: MLN4924 1 uM, 8 h) of 5.17 ± 0.31.
